In publication PMC7082075:
Values joined by “and” are separate entries in the source; they are usually repeats but may differ in a detail not shown here. Identical values can stand only once.

Legend:
[1] = target: SNX3-retromer complex (Retromer + SNX3), Q96QK1; assay: ITC; approximately 2–3 mM peptide titrated into SNX5^PX (300 μM) or the SNX3-retromer complex (10 μM Retromer + 100 μM SNX3); 100 mM HEPES pH 7.5, 300 mM NaCl, 2 mM βME, 25°C; one set of sites model (Fig 1D, 1E, 2B)
[2] = target: SNX3-retromer complex (retromer VPS35/VPS26/VPS29 with SNX3), Q96QK1; assay: ITC; Fig 1E: approximately 2–3 mM of peptides titrated into the SNX3-retromer complex (10 μM Retromer + 100 μM SNX3); 100 mM HEPES pH 7.5, 300 mM NaCl, 2 mM βME, 25°C; one set of sites model; single values of triplicates

Binder | Kd [1] | Kd [2]
AQPELYLLNTMDADSLVSR (modifications not checked) [DMT1-II peptide] | 110 µM | –
AQPELYLLNTMDADSLVSR (modifications not checked) [DMT1-II peptide (divalent metal transporter 1)] | – | 100 µM and 113 µM and 117 µM
